This passage reports kcat results from paper PMC3129624.

Substrate in this data set: NC(=O)N[C@H]1NC(=O)NC1=O
Nature of the data set: purified protein. Type of data set: biochemical, Klebsiella pneumoniae. As to conditions: 10 mM NaCl, 10 mM HEPES, pH 7.5, 25 °C, no cofactor or metal.

B1: KpHpxA (K. pneumoniae allantoin racemase) (Klebsiella pneumoniae subsp. pneumoniae MGH 78578) (protein)
chain: MSSVRIQVINPNTSLAMTETIGAAARAVAAPGTEILAVCPRAGVPSIEGHFDEAIAAVGVLEQIRAGREQGVDGHVIACFGDPGLLAARELAQGPVIGIAEAAMHMATMVATRFSIVTTLPRTLIIARHLLHQYGFHQHCAALHAIDLPVLALEDGSGLAQEKVRERCIRALKEDGSGAIVLGCGGMATLAQELTRELRVPVIDGVSAAVKMVESLVALGLATSKHGDLAFPEKKALSGQFQSLNPF
As usually defined, the kcat is the number of substrate molecules converted per active site and unit of time at saturation. Take B1: the kcat turned out to be 183 ± 17 s⁻¹.
